The target of assay [1] is T1, glycosylated human CD98hc ectodomain (hCD98hcEDg), monobiotinylated (human, UniProt P08195-2 111-529, single biotin group on the biotin acceptor peptide (BirA co-expressed); N-glycosylated).
T1 construct: human CD98 heavy chain, extracellular domain, UniProt ID P08195-2, residues Glu111-Ala529; also called 4F2hc; SLC3A2; not shown: biotin acceptor peptide (BAP), N-terminal, kept
T1 sequence (looked up): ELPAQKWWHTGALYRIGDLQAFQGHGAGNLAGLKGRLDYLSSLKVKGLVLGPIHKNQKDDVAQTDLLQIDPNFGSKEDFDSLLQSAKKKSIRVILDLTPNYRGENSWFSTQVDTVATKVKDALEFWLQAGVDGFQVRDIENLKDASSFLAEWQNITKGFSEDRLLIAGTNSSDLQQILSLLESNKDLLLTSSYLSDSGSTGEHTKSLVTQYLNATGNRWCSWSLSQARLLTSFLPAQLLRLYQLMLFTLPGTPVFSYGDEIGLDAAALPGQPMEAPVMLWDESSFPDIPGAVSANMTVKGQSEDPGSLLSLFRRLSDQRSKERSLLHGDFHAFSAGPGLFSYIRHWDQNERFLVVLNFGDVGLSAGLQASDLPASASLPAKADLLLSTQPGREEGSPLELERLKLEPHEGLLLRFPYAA
Description: SPR; biotinylated hCD98hcEDg immobilised (ΔRU ≈ 225) on a streptavidin-functionalized sensorchip (Biotin CAPture kit); BIAcore 2000, 25 °C, HBS-T (20 mM Hepes/NaOH pH 7.5, 150 mM NaCl, 0.005% Tween 20); single cycle kinetics, five injections of a 1:2 dilution series of the lipocalin variant; global 1:1 Langmuir fit; KD = koff/kon. As to conditions: both partners purified. (In general: In SPR one partner is held on a chip, and binding of the other changes the refractive index at the surface.)

Assay [2] has as its target human CD98hc ectodomain, unglycosylated, biotinylated (hCD98hcED) (human) (UniProt P08195). The assay is described as follows: SPR; single cycle kinetics (five injections of a 1:2 dilution series, 3500 s dissociation); biotinylated hCD98hcED immobilised on a streptavidin sensorchip (Biotin CAPture kit), lipocalin variant as analyte; 25 °C, HBS-T; global 1:1 Langmuir fit.

B1: lipocalin variant (Anticalin) P1E4 (designed binder)
chain: QDSTSDLIPAPPLSKVPLQQNFQDNQFHGKWYVVGIAGNSMLREDKDPFKMTATIYELKEDKSYNVTRVRFDDKKCLYRILTFVPGSQPGEFTLGNIKSRPGWTSWLVRVVSTNYNQHAMVFFKRVHQNRETFWITLYGRTKELTSELKENFIRFSKSLGLPENHIVFPVPIDQCIDG
notes: source: E. coli JM83, periplasmic extract, purified (IMAC, SEC)
With B1, in assay [1], the Kd (in general, the free concentration of one partner at which half of the binding sites on the other are occupied at equilibrium, for simple one-to-one binding) stood at 162 ± 20.9 nM; the koff (as a rule, a measure of how fast the partners let go of each other) was 0.09 s⁻¹; the kon (as a rule, a measure of how fast the partners come together) was 560000 M⁻¹ s⁻¹.

B2: lipocalin variant (Anticalin) P3D11 (designed binder)
chain: QDSTSDLIPAPPLSKVPLQQNFQDNQFHGKWYVVGRAGNTGLREDKDPGKMFATIYELKEDKSYNVTYVWFGQKKCMYSIGTFVPGSQPGEFTLGNIKSAPGRTSWLVRVVSTNYNQHAMVFFKSVTQNREGFAITLYGRTKELTSELKENFIRFSKSLGLPENHIVFPVPIDQCIDG
notes: as for B1
For the molecule B2, in assay [1], the koff turned out to be 5e-05 s⁻¹ and the kon was determined as 300000 M⁻¹ s⁻¹.

B3: Anticalin D11vs (P3D11 with Phe71Ser and Gly81Val) (designed binder)
chain: QDSTSDLIPAPPLSKVPLQQNFQDNQFHGKWYVVGRAGNTGLREDKDPGKMFATIYELKEDKSYNVTYVWSGQKKCMYSIVTFVPGSQPGEFTLGNIKSAPGRTSWLVRVVSTNYNQHAMVFFKSVTQNREGFAITLYGRTKELTSELKENFIRFSKSLGLPENHIVFPVPIDQCIDG
notes: source: E. coli, soluble protein at preparative scale, purified
In assay [2], B3 returned a Kd of 0.06 nM, a koff of 2.6e-05 s⁻¹, a kon of 450000 M⁻¹ s⁻¹ and a τ1/2 (complex half-life) of 7.37 h. Also, in assay [1], binding was characterised by a dissociation constant (Kd) of 0.05 ± 0.003 nM, the koff was determined as 2.2e-05 s⁻¹ and the kon was determined as 460000 M⁻¹ s⁻¹.

The values are drawn from PMC7019167, “Development of a high affinity Anticalin® directed against human CD98hc for theranostic applications” (Theranostics, 2020).
